From patent US5508261A, “Analogs of glycoprotein hormones having altered receptor binding specificity and activity and methods for preparing and using same” (University of Medicine & Dentistry of New Jersey, priority 1995, dated 1996)

Columns and labels:
[1] = system: bovine testes FSH receptors; assay: Inhibition of 125I-hFSH binding to bovine testes tissue homogenates (radioligand receptor assay); conditions: concentration of recombinant hFSH for 50% inhibition of 125I-hFSH binding divided by that of analog
Excerpt: (§1) The term "N.D." means not determined because concentrations of analog were not employed high enough to detect 50% inhibition.
(§2) An aliquot of the ligation mixture was taken and used to transform DH5-alpha strain E. coli. (obtained from Bethesda Research Laboratories, Gaithersburg, Md.). Plasmid DNAs from ampicillin-resistant DH5-alpha clones were screened by digestion with BglII (which is unique to vectors containing the cassette) and EcoRI (which cuts in the vector). Positive clones were identified by the presence of two fragments (approximately 0.8 Kbp and 2.9 Kbp). […] After the DNA was subjected to a dideoxy sequencing procedure to confirm that it encoded "GT" (Table 1), the plasmid DNA was then cotransfected into COS-7 cells (obtained from the American Type Culture Collection) along with pSVL-hCG-alpha, a pSVL-based plasmid encoding the human glycoprotein hormone alpha-subunit (10, 21), using a DEAE-dextran procedure (10).

[2] = system: rat luteal ovarian LH receptors; assay: Inhibition of 125I-hCG binding to rat corpora luteal LH receptors (radioligand receptor assay); conditions: concentration of recombinant hCG for 50% inhibition of 125I-hCG binding divided by that of analog
Excerpt: as §1, §2

B1: eCG: equine gonadotropin control (text calls the control eLH, equine lutropin) (protein)
chain: SRGPLRPLCRPINATLAAEKEACPICITFTTSICAGYCPSMVRVMPAALPAIPQPVCTYRELRFASIRLPGCPPGVDPMVSFPVALSCHCGPCQIKTTDCGVFRDQPLACAPQASSSSKDPPSQPLTSTSTPTPGASRRSSHPLPIKTS
[1]
  Activity at FSH RECEPTORS relative to that of hFSH: 0.18
[2]
  Activity at LH RECEPTORS relative to that of hCG: 0.53
